Source: US20200093883A1 (XIGEN INFLAMMATION, published 2020)
Square brackets hold non-standard residues; d marks the D form. Ends that are not written are not given here.

Target: c-Jun N-terminal kinase (JNK) in primary mouse cortical neurons (mouse)
Test: cell-based or functional assay

B1: JNK inhibitor according to SEQ ID NO: 172 ("XG-104") (peptide)
peptide: [dR]KKR[dR]QRR[dR]RP[dK]RP[dA]TLNL[dF]-NH2
modifications: N-terminus assumed
SMILES: CC(C)C[C@H](NC(=O)[C@H](CC(N)=O)NC(=O)[C@H](CC(C)C)NC(=O)[C@@H](NC(=O)[C@@H](C)NC(=O)[C@@H]1CCCN1C(=O)[C@H](CCCNC(=N)N)NC(=O)[C@@H](CCCCN)NC(=O)[C@@H]1CCCN1C(=O)[C@H](CCCNC(=N)N)NC(=O)[C@@H](CCCNC(=N)N)NC(=O)[C@H](CCCNC(=N)N)NC(=O)[C@H](CCCNC(=N)N)NC(=O)[C@H](CCC(N)=O)NC(=O)[C@@H](CCCNC(=N)N)NC(=O)[C@H](CCCNC(=N)N)NC(=O)[C@H](CCCCN)NC(=O)[C@H](CCCCN)NC(=O)[C@H](N)CCCNC(=N)N)[C@@H](C)O)C(=O)N[C@H](Cc1ccccc1)C(N)=O
How did the “JNK activity (ratio pJNK/JNK, immunoblot), neurons exposed to 2 µM Aβ42, pre-treatment with 5 µM XG-104: decrease” value turn out when B1 was run?
Its value is 29.2%.

What about the “JNK activity (ratio pJNK/JNK, immunoblot), neurons exposed to 2 µM Aβ42, pre-treatment with 10 µM XG-104: decrease” value of the same binder?
The value was 60%.

What about the “JNK activity (ratio pJNK/JNK, immunoblot), neurons exposed to 25 µM Aβ42, pre-treatment with 5 µM XG-104: decrease” value of the same binder?
Its value is 17.5%.

What about the “JNK activity (ratio pJNK/JNK, immunoblot), neurons exposed to 25 µM Aβ42, pre-treatment with 10 µM XG-104: decrease” value of the same binder?
Its value is 59.6%.
